Results as given in US9283300B2, “Use of midkine protein and the protein-containing medical device” (GENERAL REGENERATIVES, LTD, priority 2009, dated 2016).

How the values were obtained:
[1] = tested on: ACLT-induced rat knee cartilage damage; experiment: Osteoarthritis induced by anterior cruciate ligament transection (ACLT) of rat knee, intra-articular rhMK; type: in vivo, SD rats
Protocol: Method. 7-week-old male SD rats (250-330 g weight) were anesthetized with 3% pentobarbital sodium (30 mg/kg) by intraperitoneal injection. After anesthesia, the skin was prepared on both sides of the knees. With conventional surgical sterilization and under sterile conditions, the skin and subcutaneous tissue of the knees was cut open from the middle of front knee. The joint capsule was cut along the inner side of the white patellar tendon resulting in patellar dislocation. The anterior cruciate ligament was identified and cut with ophthalmic scissors. The knee was straightened, the patella was relocated, and the wound was sutured layer by layer. Amikacin (100,000 U/ml, injection concentration of 10 mg/kg, a dose of 1 μl/10 g body weight) was injected every day for 4 days to prevent the wound site infection. 14 weeks after the surgery, saline or rhMK was injected into the knee-articular cavity. The rats in sham group without ACLT surgery were not treated; The rats in the ACLT/saline group were injected with 100 μl saline; The rats in ACLT/rhMK-L group were injected with 100 μl rhMK (58.3 μg/kg); In ACLT/rhMK-H group, 100 μl rhMK (525 μg/kg) was given. The injections were given three times one week and continued for two weeks. The rats were maintained in cages with free movement. The rats were sacrificed 2 or 6 weeks after the initiation of the treatments. […]

[2] = tested on: rat auricular chondrocytes; experiment: Phenotype of chondrocytes in monolayer culture (semi-quantitative PCR of Col2a1, collagen II immunohistochemical staining); type: cell-based
Protocol: 3. Culture of primary chondrocytes in monolayer. Three types of primary chondrocytes were suspended in DMEM medium containing 10% FBS, adjusted to 5×10^4 cells/ml, added to 6-well plate with 2 ml medium/well, and incubated in 37° C. at 5% CO2. Experiment was divided into two groups: control group and experimental group (with 3 μg/ml rhMK). Cell medium was changed every two days. When the cells grew to the confluence of 85% to 90%, the cells were collected by trypsin digestion, washed in PBS by centrifugation. The cells were resuspended in DMEM containing 10% FBS. Cell survival was monitored by trypan blue staining. Part of the cells were used for cell passage; some were for RNA extraction; some were cytospined onto a glass slide for later immunohistochemical staining and the slides were stored at −80° C. Primary cells or passage 0 (P0) were cultured for 7 days. The newly passaged cells were further cultured in a 6-well plate for 3 days which was then collected by trypsin-digestion and marked as passage P1. The cell amplification at each passage=total number of cells at output/total number of cells at initial input. 6. Immunohistochemical staining. […] RNA extraction and semi-quantitative PCR. […] PCR products were separated on 1.5% (w/v) agarose gels and quantified after staining with ethidium bromide in comparison with internal control gene expression of β-actin.

[3] = tested on: cartilage of normal New Zealand rabbit (articular, ear, tracheal, intervertebral disc); experiment: rhMK effect on cartilage thickness of normal rabbits (subcutaneous injection, histology); type: in vivo; details: rhMK 92.5 μg/kg s.c. daily for two weeks
Protocol: Method. 8-weeks-old male C57BL/6J mice were injected subcutaneously with recombinant human MK (rhMK) or control saline. The injection volume was 0.5 ml, given daily for a week. The mice were grouped (3 animals per group): Saline (NS) group, rhMK groups injected with various dosages at 10, 33, 100, 300, 900 μg/kg. Rats were injected with saline or rhMK (175 μg/kg) daily for a week. Rabbits were injected with saline or rhMK (92.5 μg/kg) daily for two week. Histological observation and evaluation. The knee joint tissues of all mice and rats were fixed in 10% (v/v) formalin for 1 day, the tissues of rabbits were fixed for 2 days. The fixed tissues were subjected to demineralization in liquid (7% AlCl3.6H2O, 5% methanoic acid, 8.5% HCl) 4 days for mouse and rats issues, and 10 days for rabbit tissues. The demineralized tissues were subjected to dehydration by gradient ethanol, and treated for transparency by xylene, and embedded in wax. Tissue sections were prepared by the paraffin slicing machine (Laica), and stained with hemotoxylin/eosin or Safranine O/fast green staining. Slides were observed under microscope and analyzed. The thickness of cartilage tissues were measured by the vernier caliper on microscope. Three tissue sections from each sample were measured and analyzed statisticaly. The distance between surface of cartilage to subchondral tide line was measured at ½ position of femoral condyle to denote the thickness of knee-joint cartilage. The thickness of cartilage at central part of ears was measured to denote the thickness of ear elastic cartilage. The distance between out surface of annulus to nucleus of the intervertebral disc was measured to denote the thickness of thoracic intervertebral disc (T2-3). To verify the results of rhMk in mice, we performed the same experiments in vivo using commonly used laboratory animals, rat and rabbit. Rats were injected subcutaneously with rhMK at 175 μg/kg/day for one week, and rabbits was injected subcutaneously 92.5 ug/kg/day for two weeks. […] The injection dose of rhMK: mice was injected subcutaneously 300 μg/kg daily for a week; rats were injected 175 μg/kg daily for a week; and New Zealand rabbits was injected 92.5 μg/kg daily for two weeks. Three animals per group were analyzed.

B1: rhMK: recombinant human midkine mature protein (SEQ ID NO.1) expressed in E. coli and purified by ion-exchange chromatography (protein, listed as Homo sapiens)
chain: MKKKDKVKKGGPGSECAEWAWGPCTPSSKDCGVGFREGTCGAQTQRIRCRVPCNWKKEFGADCKYKFENWGACDGGTGTKVRQGTLKKARYNAQCQETIRVTKPCTPKTKAKAKAKKGKGKD
- histological scores ([1]; ACLT/rhMK groups (58.3 and 525 μg/kg intra-articular) versus ACLT/saline group, P<0.05 Kruskal-wallis Test): statistically lower than that of the ACLT/saline group
- regenerated cartilage layer thickness (histology) ([1]; ACLT/rhMK groups versus ACLT/saline group, 18 weeks after ACLT surgery): significantly thicker than that of ACLT/saline group
- effect on Col2a1 expression (semiquantitative PCR) ([2]; auricular chondrocyte after one passage): inhibited the decreasing of the Col2a1
- chondrocytes stained collagen II positive ([2]; auricular chondrocytes, passage one, rhMK group, not detected without rhMK): about 50%
- Cartilage thickness, Ear [3]: 605.4 ± 5.4 µm
- Cartilage thickness, Femoral condyle [3]: 612 ± 6.4 µm
- Cartilage thickness, Intervertbral disc (T2-3) [3]: 1520 ± 54 µm
- Cartilage thickness, Trachea [3]: 495 ± 6.5 µm
